Where no end group is shown, it is not given here.
Legend:
Test in all cases: cell-based or functional assay
MC4R = MC4R (UniProt P32245 1-332)
MLNR = MLNR (UniProt O43193 1-412)
AVPR2 = AVPR2 (UniProt P30518 1-371)
SSTR5 = SSTR5 (UniProt P35346 1-364)
CCR4 = target: T1, CCR4 (UniProt P51679 1-360)
T1 sequence (looked up): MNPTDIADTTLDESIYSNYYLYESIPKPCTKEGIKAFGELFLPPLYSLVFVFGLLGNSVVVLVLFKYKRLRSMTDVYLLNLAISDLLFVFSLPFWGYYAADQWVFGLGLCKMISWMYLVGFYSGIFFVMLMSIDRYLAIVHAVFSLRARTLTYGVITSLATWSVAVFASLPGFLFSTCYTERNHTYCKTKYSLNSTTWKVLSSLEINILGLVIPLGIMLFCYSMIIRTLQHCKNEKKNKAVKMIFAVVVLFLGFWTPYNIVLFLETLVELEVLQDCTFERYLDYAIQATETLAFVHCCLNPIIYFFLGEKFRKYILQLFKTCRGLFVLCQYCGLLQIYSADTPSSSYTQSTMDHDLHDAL

CCR7 = target: T2, CCR7 (UniProt P32248 25-378)
T2 sequence (looked up): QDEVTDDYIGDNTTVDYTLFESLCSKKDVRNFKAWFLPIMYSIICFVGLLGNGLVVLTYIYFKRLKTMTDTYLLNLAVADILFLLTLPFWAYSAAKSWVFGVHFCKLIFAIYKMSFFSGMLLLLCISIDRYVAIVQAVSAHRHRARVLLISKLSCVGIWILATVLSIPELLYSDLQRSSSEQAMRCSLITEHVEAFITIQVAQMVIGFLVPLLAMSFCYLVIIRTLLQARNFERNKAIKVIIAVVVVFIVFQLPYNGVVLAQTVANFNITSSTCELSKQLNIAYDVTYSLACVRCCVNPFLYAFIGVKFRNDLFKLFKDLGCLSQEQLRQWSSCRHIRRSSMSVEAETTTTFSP

CXCR3 = target: T3, CXCR3 (UniProt P49682 1-368)
T3 sequence (looked up): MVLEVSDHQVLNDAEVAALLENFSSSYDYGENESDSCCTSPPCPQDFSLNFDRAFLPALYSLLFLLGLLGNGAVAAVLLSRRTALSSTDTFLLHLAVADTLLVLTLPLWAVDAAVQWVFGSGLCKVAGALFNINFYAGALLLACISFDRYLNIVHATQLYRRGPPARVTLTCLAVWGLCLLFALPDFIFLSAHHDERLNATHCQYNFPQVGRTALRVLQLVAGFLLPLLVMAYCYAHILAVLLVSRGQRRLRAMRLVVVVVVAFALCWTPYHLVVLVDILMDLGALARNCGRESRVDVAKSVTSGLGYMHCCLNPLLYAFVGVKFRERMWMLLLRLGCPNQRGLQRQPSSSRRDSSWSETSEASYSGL

FSHR = target: T4, FSHR (UniProt P23945 18-695)
T4 sequence (looked up): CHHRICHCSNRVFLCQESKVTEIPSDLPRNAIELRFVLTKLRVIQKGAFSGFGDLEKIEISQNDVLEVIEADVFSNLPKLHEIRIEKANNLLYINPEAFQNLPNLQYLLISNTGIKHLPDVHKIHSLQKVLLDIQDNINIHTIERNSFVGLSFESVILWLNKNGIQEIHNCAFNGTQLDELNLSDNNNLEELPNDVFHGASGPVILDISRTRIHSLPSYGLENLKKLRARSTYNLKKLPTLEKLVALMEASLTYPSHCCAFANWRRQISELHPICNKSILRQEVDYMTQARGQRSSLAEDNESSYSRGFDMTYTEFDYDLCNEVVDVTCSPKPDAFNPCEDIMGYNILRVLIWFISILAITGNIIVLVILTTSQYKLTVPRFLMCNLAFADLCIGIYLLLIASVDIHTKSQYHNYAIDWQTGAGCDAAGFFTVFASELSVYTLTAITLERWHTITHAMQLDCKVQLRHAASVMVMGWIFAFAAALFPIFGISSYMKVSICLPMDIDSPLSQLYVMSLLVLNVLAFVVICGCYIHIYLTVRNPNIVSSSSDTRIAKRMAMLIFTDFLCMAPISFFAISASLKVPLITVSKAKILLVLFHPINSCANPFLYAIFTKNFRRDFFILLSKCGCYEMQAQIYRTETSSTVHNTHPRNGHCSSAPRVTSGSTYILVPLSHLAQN

GLP2R = target: T5, GLP2R (UniProt O95838 1-553, limits assumed)
T5 sequence (looked up): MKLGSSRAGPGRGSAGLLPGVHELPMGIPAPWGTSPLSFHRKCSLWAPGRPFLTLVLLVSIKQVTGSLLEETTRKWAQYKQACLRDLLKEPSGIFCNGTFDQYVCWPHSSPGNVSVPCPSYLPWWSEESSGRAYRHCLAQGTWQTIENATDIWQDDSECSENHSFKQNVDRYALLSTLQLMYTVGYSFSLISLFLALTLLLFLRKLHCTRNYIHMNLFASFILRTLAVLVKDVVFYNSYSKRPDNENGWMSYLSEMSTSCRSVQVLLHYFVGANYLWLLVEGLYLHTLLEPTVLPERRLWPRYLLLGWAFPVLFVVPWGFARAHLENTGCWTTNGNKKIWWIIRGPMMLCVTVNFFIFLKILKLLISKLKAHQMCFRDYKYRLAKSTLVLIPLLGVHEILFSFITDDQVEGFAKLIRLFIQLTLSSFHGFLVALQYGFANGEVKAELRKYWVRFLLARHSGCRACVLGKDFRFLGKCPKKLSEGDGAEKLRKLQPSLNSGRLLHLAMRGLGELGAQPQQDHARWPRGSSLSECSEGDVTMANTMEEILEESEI

GPR119 = target: T6, GPR119 (UniProt Q8TDV5 1-335)
T6 sequence (looked up): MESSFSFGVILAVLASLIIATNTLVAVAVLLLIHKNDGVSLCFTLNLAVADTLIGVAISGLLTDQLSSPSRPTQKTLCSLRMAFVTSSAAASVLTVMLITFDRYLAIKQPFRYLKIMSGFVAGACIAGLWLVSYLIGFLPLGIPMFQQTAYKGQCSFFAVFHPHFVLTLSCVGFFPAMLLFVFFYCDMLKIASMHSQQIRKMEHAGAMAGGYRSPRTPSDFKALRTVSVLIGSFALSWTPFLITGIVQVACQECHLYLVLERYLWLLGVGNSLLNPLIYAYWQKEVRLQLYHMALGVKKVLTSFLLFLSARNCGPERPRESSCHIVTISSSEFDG

Chain of MC4R (P32245 whole entry): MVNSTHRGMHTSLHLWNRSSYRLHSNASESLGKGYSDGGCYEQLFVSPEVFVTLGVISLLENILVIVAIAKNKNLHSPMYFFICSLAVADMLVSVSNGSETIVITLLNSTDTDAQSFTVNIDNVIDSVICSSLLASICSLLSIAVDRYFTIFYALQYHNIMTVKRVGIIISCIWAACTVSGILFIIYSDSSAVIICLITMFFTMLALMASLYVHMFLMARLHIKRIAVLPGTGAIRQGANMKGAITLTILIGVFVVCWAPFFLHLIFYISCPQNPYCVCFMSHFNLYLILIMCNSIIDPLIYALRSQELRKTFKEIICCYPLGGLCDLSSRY
Chain of SSTR5 (P35346 whole entry): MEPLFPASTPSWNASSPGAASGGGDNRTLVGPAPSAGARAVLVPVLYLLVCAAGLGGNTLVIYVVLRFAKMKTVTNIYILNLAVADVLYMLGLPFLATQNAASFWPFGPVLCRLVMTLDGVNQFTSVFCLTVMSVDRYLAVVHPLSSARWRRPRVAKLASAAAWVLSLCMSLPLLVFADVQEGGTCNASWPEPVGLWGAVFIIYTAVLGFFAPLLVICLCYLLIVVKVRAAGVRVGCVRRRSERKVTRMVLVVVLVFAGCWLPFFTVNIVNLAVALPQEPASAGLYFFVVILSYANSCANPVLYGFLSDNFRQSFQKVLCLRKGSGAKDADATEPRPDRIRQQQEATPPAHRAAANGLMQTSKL
Chain of MLNR (O43193 whole entry): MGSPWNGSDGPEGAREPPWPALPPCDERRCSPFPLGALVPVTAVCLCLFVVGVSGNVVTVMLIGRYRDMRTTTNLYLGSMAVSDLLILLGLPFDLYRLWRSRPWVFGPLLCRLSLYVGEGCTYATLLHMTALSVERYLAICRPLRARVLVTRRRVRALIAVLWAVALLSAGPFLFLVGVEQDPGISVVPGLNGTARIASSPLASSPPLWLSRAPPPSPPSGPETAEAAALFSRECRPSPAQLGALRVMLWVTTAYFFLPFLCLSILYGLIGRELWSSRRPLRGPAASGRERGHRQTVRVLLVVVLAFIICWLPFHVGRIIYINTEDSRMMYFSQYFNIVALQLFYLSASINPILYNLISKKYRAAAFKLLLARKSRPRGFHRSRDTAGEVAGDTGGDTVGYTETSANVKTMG

B1: octadecaneuropeptide (ODN) (peptide)
peptide: QATVGDVNTDRPGLLDLK
modifications: also: synthesised on Rink amide resin, C-terminal amide not given here outright
% Activity, arrestin, antagonist mode, 2.5 uM (MC4R): -4.6%
% Activity, arrestin, antagonist mode, 2.5 uM (MLNR): -5.5%
% Activity, arrestin, antagonist mode, 2.5 uM (AVPR2): -11.2%
% Activity, arrestin, antagonist mode, 2.5 uM (SSTR5): -17.3%
% Activity, arrestin, antagonist mode, 2.5 uM (CCR4): 1.3%
% Activity, arrestin, antagonist mode, 2.5 uM (CCR7): -19.2%
% Activity, arrestin, antagonist mode, 2.5 uM (CXCR3): -7.5%
% Activity, arrestin, antagonist mode, 2.5 uM (FSHR): -16.9%
% Activity, arrestin, antagonist mode, 2.5 uM (GLP2R): -15.4%
% Activity, arrestin, antagonist mode, 2.5 uM (GPR119): -1%

Reference: patent publication US20260184748A1 (University of Pennsylvania, published 2026)
